Article PMC9504514, “Identification of a Potential Inhibitor (MCULE-8777613195-0-12) of New Delhi Metallo-β-Lactamase-1 (NDM-1) Using In Silico and In Vitro Approaches” (Molecules, 2022)

How the values were obtained:
[1] = molecular target: T1, New Delhi metallo-β-lactamase-1 (NDM-1) (Klebsiella pneumoniae, UniProt C7C422); assay: biochemical
T1 construct: gene blaNDM-1

[2] = molecular target: T1, New Delhi metallo-β-lactamase-1 (NDM-1); assay: steady-state hydrolysis kinetics (Km) with purified NDM-1; assay type: biochemical
[3] = system: CO/N=C(\C(=O)N[C@@H]1C(=O)N2C(C(=O)O)=C(COC(C)=O)CS[C@H]12)c1csc(N)n1; assay: as above; assay type: biochemical, Klebsiella pneumoniae; conditions: Zn2+ (two zinc ions)
[4] = system: C[C@@H](O)[C@H]1C(=O)N2C(C(=O)O)=C(SCCN=CN)C[C@H]12; assay: as above; assay type: biochemical, Klebsiella pneumoniae; conditions: Zn2+ (two zinc ions)
[5] = system: C[C@@H](O)[C@H]1C(=O)N2C(C(=O)O)=C(S[C@@H]3CN[C@H](C(=O)N(C)C)C3)[C@H](C)[C@H]12; assay: as above; assay type: biochemical, Klebsiella pneumoniae; conditions: Zn2+ (two zinc ions) substrate binding site (docking)
[6] = system: CC1(C)S[C@@H]2[C@H](NC(=O)[C@H](N)c3ccccc3)C(=O)N2[C@H]1C(=O)O; assay: as above; assay type: biochemical, Klebsiella pneumoniae; conditions: Zn2+ (two zinc ions)

T1 sequence (C7C422 29-270 limits assumed): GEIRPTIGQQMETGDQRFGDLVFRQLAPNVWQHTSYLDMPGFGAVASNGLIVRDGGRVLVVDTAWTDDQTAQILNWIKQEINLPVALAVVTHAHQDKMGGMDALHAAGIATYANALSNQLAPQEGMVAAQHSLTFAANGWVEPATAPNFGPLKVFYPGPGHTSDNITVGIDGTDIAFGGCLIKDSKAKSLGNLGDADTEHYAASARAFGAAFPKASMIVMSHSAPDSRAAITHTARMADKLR

Which IC50 [1] does the source give for `N#CC1=Cc2ccccc2[C@@H]2NN3C(C#N)=Cc4ccccc4[C@@H]3NN12` [MCULE-8777613195-0-12, [3R,14R]-1,2,12,13-tetrazapentacyclo [12.8.0.03,12.04,9.015,20]docosa-4,6,8,10,15,17,19,21-octaene-11,22-dicarbonitrile] here?
Its IC50 is 54.2 ± 6.3 µM.

`O=C(Cc1cccs1)N[C@@H]1C(=O)N2C(C(=O)O)=C(/C=C/c3ccc([N+](=O)[O-])cc3[N+](=O)[O-])CS[C@H]12` [nitrocefin] was tested. Which Km [2] did it give?
The Km was 27.1 ± 2.1 µM.

For “New Delhi metallo-β-lactamase-1 (NDM-1) (Klebsiella pneumoniae)”, which Km [3] is on record?
Its Km is 61.6 ± 5.8 µM.

What about the kcat [3] of the same compound?
Its kcat is 413 ± 28.1 s⁻¹.

What about the kcat/Km [3] of the same compound?
Its kcat/Km is 6.7e+06 ± 270000 M⁻¹ s⁻¹.

What about the Km [4] of the same compound?
Its Km is 83.9 ± 6.7 µM.

What about the kcat [4] of the same compound?
Its kcat is 700 ± 18.7 s⁻¹.

What about the kcat/Km [4] of the same compound?
Its kcat/Km is 8.34e+06 ± 640000 M⁻¹ s⁻¹.

And the Km [5]?
The Km was 58.3 ± 5.2 µM.

What about the kcat [5] of the same compound?
The kcat was 301 ± 11.9 s⁻¹.

And the kcat/Km [5]?
Its kcat/Km is 5.17e+06 ± 330000 M⁻¹ s⁻¹.

What about the Km [6] of the same compound?
Its Km is 99.4 ± 7.6 µM.

What about the kcat [6] of the same compound?
Its kcat is 392 ± 25.7 s⁻¹.

What about the kcat/Km [6] of the same compound?
Its kcat/Km is 3.94e+06 ± 140000 M⁻¹ s⁻¹.
